Changes are numbered by the printed parent chain. Names may count otherwise.
T1: mouse FcγRI on mouse peritoneal macrophages (from FcγRIIb-/- mice) (mouse, UniProt P26151 25-404)
T1 construct: whole, on cells; also called FcγRI on mouse macrophages
T1 sequence (looked up): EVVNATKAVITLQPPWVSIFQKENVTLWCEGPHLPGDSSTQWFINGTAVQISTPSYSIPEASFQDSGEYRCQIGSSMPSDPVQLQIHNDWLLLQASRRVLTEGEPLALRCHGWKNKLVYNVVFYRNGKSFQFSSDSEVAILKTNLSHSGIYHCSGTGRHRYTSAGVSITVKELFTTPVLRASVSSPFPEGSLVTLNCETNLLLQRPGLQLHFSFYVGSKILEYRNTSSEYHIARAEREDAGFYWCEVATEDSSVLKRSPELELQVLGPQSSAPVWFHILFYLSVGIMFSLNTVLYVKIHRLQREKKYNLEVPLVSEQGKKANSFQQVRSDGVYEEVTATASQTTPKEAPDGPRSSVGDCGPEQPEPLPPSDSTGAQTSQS

B1: C-reactive protein (human CRP) (ligand)
chain: QTDMSRKAFVFPKESDTSYVSLKAPLTKPLKAFTVCLHFYTELSSTRGYSIFSYATKRQDNEILIFWSKDIGYSFTVGGSEILFEVPEVTVAPVHICTSWESASGIVEFWVDGKPRVRKSLKKGYTVGAEASIILGQEQDSFGGNFEGSQSLVGDIGNVNMWDFVLSPDEINTIYLGGPFSPNVLNWRALKYEVQGEVFTKPQLWP
notes: also called purified human CRP; native CRP
B2: Y175L mutant CRP (tyrosine 175 replaced by leucine) (ligand)
chain: B1 chain with Y175L
notes: It has 206 amino acids; The protein is recombinant; also called Y175L CRP; recombinant Y175L mutant CRP

Key:
[1] = target: T1, mouse FcγRI on mouse peritoneal …; experiment: two-color flow cytometry of CRP bound to mouse peritoneal macrophages expressing FcγRI (from FcγRIIb-/- mice); panel title 'Binding to FcγRI'
Description: A. Macrophages expressing FcγRI (from FcγRIIb^{-/-} mice). B. Macrophages expressing FcγRIIb (from FcR γ-chain^{-/-} mice).

human FcγRIII = human FcγRIII (human); experiment: SPR, CRP as analyte on immobilized human FcγR
human FcγRI = target: T2, human FcγRI (human, UniProt P12314 16-288, limits assumed); experiment: SPR, CRP as analyte on immobilized human FcγR
T2 construct: Immobilized on the SPR chip
T2 sequence (P12314 16-288 limits assumed): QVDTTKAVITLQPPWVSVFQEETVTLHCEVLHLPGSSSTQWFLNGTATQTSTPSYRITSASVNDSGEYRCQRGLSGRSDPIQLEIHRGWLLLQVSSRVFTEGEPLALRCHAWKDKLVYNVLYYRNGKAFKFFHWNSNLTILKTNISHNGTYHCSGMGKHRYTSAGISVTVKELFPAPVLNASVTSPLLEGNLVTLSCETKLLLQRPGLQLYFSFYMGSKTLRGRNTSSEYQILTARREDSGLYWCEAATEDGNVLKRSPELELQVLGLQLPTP

Sequence of human FcγRIII (human) (O75015 17-200): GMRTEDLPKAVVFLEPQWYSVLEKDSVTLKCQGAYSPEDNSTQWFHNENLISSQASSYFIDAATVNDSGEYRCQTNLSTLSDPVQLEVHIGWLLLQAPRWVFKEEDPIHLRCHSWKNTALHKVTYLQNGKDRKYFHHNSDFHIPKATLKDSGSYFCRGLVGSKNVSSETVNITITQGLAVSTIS

Row | Binder | binding result [1] | Kd (human FcγRIII) | Kd (human FcγRI)
1 | B1 | binds | 4.1 µM | 3.2 µM
2 | B2 | binds | – | 3.5 µM
